B1: GpH7-B3 variant S324_14T/GpL16-k0 (antibody, human IgG1, kappa)
heavy: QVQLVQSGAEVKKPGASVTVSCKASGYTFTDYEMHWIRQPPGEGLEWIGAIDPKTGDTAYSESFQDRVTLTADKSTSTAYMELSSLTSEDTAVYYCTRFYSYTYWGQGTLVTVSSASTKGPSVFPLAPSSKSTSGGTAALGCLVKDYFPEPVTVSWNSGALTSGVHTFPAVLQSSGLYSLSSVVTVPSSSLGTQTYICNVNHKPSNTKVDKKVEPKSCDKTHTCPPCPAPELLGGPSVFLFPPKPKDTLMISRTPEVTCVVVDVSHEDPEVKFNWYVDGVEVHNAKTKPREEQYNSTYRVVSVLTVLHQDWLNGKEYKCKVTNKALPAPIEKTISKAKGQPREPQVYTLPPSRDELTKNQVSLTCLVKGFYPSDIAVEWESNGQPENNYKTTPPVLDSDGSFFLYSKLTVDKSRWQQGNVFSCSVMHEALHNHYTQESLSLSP
light: DIVMTQSPLSLPVTPGEPASISCQASESLVHSNRNTYLHWYLQKPGQSPQLLIYKVSNRFSGVPDRFSGSGSGTDFTLKISRVEAEDVGVYYCSQNTHVPPTFGQGTKVEIERTVAAPSVFIFPPSDEQLKSGTASVVCLLNNFYPREAKVQWKVDNALQSGNSQESVTEQDSKDSTYSLSSTLTLSKADYEKHKVYACEVTHQGLSSPVTKSFNRGEC
notes: homodimerized IgG1, mutation in both H chains; also called Ho Ab
B2: GpH7-B3 variant S337_01G/GpL16-k0 (antibody, human IgG1, kappa)
heavy: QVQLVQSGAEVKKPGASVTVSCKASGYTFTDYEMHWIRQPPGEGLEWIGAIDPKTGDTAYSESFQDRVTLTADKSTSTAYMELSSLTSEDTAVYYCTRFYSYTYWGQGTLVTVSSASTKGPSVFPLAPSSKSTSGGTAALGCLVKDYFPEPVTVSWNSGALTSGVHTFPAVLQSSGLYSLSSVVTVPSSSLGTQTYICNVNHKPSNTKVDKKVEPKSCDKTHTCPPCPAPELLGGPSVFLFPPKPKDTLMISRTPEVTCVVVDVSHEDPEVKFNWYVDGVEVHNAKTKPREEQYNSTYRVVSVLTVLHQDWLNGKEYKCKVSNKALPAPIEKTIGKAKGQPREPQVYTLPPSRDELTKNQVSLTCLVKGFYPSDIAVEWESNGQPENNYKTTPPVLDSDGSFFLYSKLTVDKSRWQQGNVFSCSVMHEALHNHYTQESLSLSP
light: B1 light
notes: as for B1
B3: GpH7-B3 variant S337_02A/GpL16-k0 (antibody, human IgG1, kappa)
heavy: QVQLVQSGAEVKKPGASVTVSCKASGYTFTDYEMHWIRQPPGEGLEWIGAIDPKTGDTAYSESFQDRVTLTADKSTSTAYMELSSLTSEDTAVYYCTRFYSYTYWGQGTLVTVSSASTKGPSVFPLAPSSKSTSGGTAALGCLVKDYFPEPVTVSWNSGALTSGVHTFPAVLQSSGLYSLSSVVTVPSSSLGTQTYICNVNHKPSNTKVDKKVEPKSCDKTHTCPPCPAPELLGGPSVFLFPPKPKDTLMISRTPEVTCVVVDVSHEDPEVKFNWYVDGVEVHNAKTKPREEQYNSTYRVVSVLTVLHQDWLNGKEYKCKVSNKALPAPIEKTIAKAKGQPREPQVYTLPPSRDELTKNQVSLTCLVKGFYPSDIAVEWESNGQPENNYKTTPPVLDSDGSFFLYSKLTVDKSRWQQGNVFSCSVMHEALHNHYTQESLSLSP
light: B1 light
notes: as for B1
B4: GpH7-B3 variant S324_19Q/GpL16-k0 (antibody, human IgG1, kappa)
heavy: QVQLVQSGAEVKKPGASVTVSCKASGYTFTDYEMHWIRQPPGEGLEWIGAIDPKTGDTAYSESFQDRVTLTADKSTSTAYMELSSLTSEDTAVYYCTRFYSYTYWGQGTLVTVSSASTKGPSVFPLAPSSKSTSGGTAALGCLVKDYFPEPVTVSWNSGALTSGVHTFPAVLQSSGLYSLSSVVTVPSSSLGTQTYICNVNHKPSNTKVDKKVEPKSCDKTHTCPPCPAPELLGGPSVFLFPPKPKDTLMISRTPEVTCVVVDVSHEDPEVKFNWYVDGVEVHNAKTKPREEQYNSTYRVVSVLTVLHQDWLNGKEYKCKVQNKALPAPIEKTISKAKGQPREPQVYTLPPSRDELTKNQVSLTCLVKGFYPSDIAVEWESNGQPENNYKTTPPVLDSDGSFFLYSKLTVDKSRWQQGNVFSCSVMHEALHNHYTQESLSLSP
light: B1 light
notes: as for B1
B5: GpH7-B3 variant S337_03V/GpL16-k0 (antibody, human IgG1, kappa)
heavy: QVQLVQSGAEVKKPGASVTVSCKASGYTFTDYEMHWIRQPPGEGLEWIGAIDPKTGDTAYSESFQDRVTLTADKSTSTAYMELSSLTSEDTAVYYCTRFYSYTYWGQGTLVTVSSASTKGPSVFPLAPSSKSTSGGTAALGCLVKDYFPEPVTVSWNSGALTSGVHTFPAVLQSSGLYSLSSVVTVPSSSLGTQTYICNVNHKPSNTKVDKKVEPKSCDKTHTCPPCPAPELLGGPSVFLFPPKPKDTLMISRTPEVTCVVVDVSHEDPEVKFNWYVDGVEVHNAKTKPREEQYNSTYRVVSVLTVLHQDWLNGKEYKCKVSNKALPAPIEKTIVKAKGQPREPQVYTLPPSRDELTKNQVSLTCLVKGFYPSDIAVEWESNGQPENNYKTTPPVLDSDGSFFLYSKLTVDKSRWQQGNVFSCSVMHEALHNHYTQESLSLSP
light: B1 light
notes: as for B1
B6: GpH7-B3 variant S324_20W/GpL16-k0 (antibody, human IgG1, kappa)
heavy: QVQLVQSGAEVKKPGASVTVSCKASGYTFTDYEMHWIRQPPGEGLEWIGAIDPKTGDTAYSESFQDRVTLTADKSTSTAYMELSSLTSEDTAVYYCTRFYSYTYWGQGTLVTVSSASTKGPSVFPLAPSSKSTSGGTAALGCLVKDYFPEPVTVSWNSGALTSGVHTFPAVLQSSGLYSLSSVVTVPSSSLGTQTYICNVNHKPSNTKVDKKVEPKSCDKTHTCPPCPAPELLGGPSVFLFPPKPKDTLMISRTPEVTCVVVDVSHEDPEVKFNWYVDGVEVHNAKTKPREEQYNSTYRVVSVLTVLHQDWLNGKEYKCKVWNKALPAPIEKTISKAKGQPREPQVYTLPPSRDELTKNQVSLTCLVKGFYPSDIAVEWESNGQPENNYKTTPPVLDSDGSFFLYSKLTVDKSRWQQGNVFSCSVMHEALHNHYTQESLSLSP
light: B1 light
notes: as for B1
B7: GpH7-A5/GpH7-B3 variant P271_02A/GpL16-k0 (antibody, human IgG1, kappa)
heavy 1: not shown
heavy 2: not shown
light: B1 light
notes: heterodimerized IgG1, mutation in one H chain; also called He Ab
B8: GpH7-A5/GpH7-B3 variant I336_10E/GpL16-k0 (antibody, human IgG1, kappa)
heavy 1: not shown
heavy 2: not shown
light: B1 light
notes: as for B7
B9: GpH7-A5/GpH7-B3 variant K326_15Y/GpL16-k0 (antibody, human IgG1, kappa)
heavy 1: not shown
heavy 2: not shown
light: B1 light
notes: as for B7
B10: GpH7-A5/GpH7-B3 variant E333_13S/GpL16-k0 (antibody, human IgG1, kappa)
heavy 1: not shown
heavy 2: not shown
light: B1 light
notes: as for B7
B11: GpH7-A5/GpH7-B3 variant K326_14T/GpL16-k0 (antibody, human IgG1, kappa)
heavy 1: not shown
heavy 2: not shown
light: B1 light
notes: as for B7
B12: GpH7-A5/GpH7-B3 variant E269_06M/GpL16-k0 (antibody, human IgG1, kappa)
heavy 1: not shown
heavy 2: not shown
light: B1 light
notes: as for B7
B13: GpH7-A5/GpH7-B3 variant K326_16H/GpL16-k0 (antibody, human IgG1, kappa)
heavy 1: not shown
heavy 2: not shown
light: B1 light
notes: as for B7
B14: GpH7-A5/GpH7-B3 variant I336_03V/GpL16-k0 (antibody, human IgG1, kappa)
heavy 1: not shown
heavy 2: not shown
light: B1 light
notes: as for B7
B15: GpH7-A5/GpH7-B3 variant A330_14T/GpL16-k0 (antibody, human IgG1, kappa)
heavy 1: not shown
heavy 2: not shown
light: B1 light
notes: as for B7
B16: GpH7-A5/GpH7-B3 variant P271_03V/GpL16-k0 (antibody, human IgG1, kappa)
heavy 1: not shown
heavy 2: not shown
light: B1 light
notes: as for B7
B17: GpH7-A5/GpH7-B3 variant A330_08L/GpL16-k0 (antibody, human IgG1, kappa)
heavy 1: not shown
heavy 2: not shown
light: B1 light
notes: as for B7
B18: GpH7-A5/GpH7-B3 variant P271_04F/GpL16-k0 (antibody, human IgG1, kappa)
heavy 1: not shown
heavy 2: not shown
light: B1 light
notes: as for B7
B19: GpH7-A5/GpH7-B3 variant A327_09D/GpL16-k0 (antibody, human IgG1, kappa)
heavy 1: not shown
heavy 2: not shown
light: B1 light
notes: as for B7
B20: GpH7-A5/GpH7-B3 variant Q295_04F/GpL16-k0 (antibody, human IgG1, kappa)
heavy 1: not shown
heavy 2: not shown
light: B1 light
notes: as for B7
B21: GpH7-A5/GpH7-B3 variant P271_13S/GpL16-k0 (antibody, human IgG1, kappa)
heavy 1: not shown
heavy 2: not shown
light: B1 light
notes: as for B7
B22: GpH7-A5/GpH7-B3 variant P271_20W/GpL16-k0 (antibody, human IgG1, kappa)
heavy 1: not shown
heavy 2: not shown
light: B1 light
notes: as for B7
B23: GpH7-A5/GpH7-B3 variant A330_09D/GpL16-k0 (antibody, human IgG1, kappa)
heavy 1: not shown
heavy 2: not shown
light: B1 light
notes: as for B7
B24: GpH7-A5/GpH7-B3 variant I336_04F/GpL16-k0 (antibody, human IgG1, kappa)
heavy 1: not shown
heavy 2: not shown
light: B1 light
notes: as for B7
B25: GpH7-A5/GpH7-B3 variant Q295_02A/GpL16-k0 (antibody, human IgG1, kappa)
heavy 1: not shown
heavy 2: not shown
light: B1 light
notes: as for B7
B26: GpH7-A5/GpH7-B3 variant Q295_03V/GpL16-k0 (antibody, human IgG1, kappa)
heavy 1: not shown
heavy 2: not shown
light: B1 light
notes: as for B7
B27: GpH7-A5/GpH7-B3 variant E269_04F/GpL16-k0 (antibody, human IgG1, kappa)
heavy 1: not shown
heavy 2: not shown
light: B1 light
notes: as for B7
B28: GpH7-A5/GpH7-B3 variant E333_01G/GpL16-k0 (antibody, human IgG1, kappa)
heavy 1: not shown
heavy 2: not shown
light: B1 light
notes: as for B7
B29: GpH7-A5/GpH7-B3 variant G236_20W/GpL16-k0 (antibody, human IgG1, kappa)
heavy 1: not shown
heavy 2: not shown
light: B1 light
notes: as for B7
B30: GpH7-A5/GpH7-B3 variant I336_01G/GpL16-k0 (antibody, human IgG1, kappa)
heavy 1: not shown
heavy 2: not shown
light: B1 light
notes: as for B7
B31: GpH7-A5/GpH7-B3 variant E269_08L/GpL16-k0 (antibody, human IgG1, kappa)
heavy 1: not shown
heavy 2: not shown
light: B1 light
notes: as for B7
B32: GpH7-A5/GpH7-B3 variant E269_15Y/GpL16-k0 (antibody, human IgG1, kappa)
heavy 1: not shown
heavy 2: not shown
light: B1 light
notes: as for B7
B33: GpH7-A5/GpH7-B3 variant P271_07I/GpL16-k0 (antibody, human IgG1, kappa)
heavy 1: not shown
heavy 2: not shown
light: B1 light
notes: as for B7
B34: GpH7-A5/GpH7-B3 variant K334_10E/GpL16-k0 (antibody, human IgG1, kappa)
heavy 1: not shown
heavy 2: not shown
light: B1 light
notes: as for B7
B35: GpH7-A5/GpH7-B3 variant I336_18N/GpL16-k0 (antibody, human IgG1, kappa)
heavy 1: not shown
heavy 2: not shown
light: B1 light
notes: as for B7
B36: GpH7-A5/GpH7-B3 variant P271_11K/GpL16-k0 (antibody, human IgG1, kappa)
heavy 1: not shown
heavy 2: not shown
light: B1 light
notes: as for B7
B37: GpH7-A5/GpH7-B3 variant P271_12R/GpL16-k0 (antibody, human IgG1, kappa)
heavy 1: not shown
heavy 2: not shown
light: B1 light
notes: as for B7
B38: GpH7-A5/GpH7-B3 variant I336_06M/GpL16-k0 (antibody, human IgG1, kappa)
heavy 1: not shown
heavy 2: not shown
light: B1 light
notes: as for B7
B39: GpH7-A5/GpH7-B3 variant P271_06M/GpL16-k0 (antibody, human IgG1, kappa)
heavy 1: not shown
heavy 2: not shown
light: B1 light
notes: as for B7
B40: GpH7-A5/GpH7-B3 variant I336_02A/GpL16-k0 (antibody, human IgG1, kappa)
heavy 1: not shown
heavy 2: not shown
light: B1 light
notes: as for B7

T1 sequence (P12314 16-292): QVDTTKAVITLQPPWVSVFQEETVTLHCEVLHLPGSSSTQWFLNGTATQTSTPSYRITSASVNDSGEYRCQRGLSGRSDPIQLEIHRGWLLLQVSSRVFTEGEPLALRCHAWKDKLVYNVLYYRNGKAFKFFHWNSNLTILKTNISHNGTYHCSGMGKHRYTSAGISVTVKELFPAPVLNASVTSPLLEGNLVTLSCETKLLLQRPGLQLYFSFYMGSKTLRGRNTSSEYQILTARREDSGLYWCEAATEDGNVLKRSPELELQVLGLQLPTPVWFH

One assay addresses T1, FcγRIa (human, UniProt P12314 16-292).
T1 construct: extracellular domain; soluble extracellular domain with C-terminal His tag, expressed in FreeStyle293 cells; also called FcgRI; FcgRIa
Description: SPR (Biacore), captured antibody, FcγRIa analyte; relative to HoCon Ab GpH7-B3/GpL16-k0 = 100. (Surface plasmon resonance follows binding to a sensor surface in real time, without labels.)
Turning to B1, the Ho/Con_1a was 112 % of control. Same read-out and setting: next, B2: 102 % of control; B3: 103 % of control. Still for that read-out and setting: next, B4: 111 % of control.

Take B5: the Ho/Con_1a was 105 % of control. The same measure, in the same setting: for B6 the value was 112 % of control.

Another assay addresses T1, FcγRIa. The assay can be described thus: SPR (Biacore), captured antibody, FcγRIa analyte; relative to HeCon Ab GpH7-A5/GpH7-B3/GpL16-k0 = 100.
In the case of B7, the He/Con_1a is 104 % of control. Still for that read-out and setting: for B8 the value was 108 % of control; for B9, 106 % of control.

Consider B10, for which the He/Con_1a is 103 % of control. Same read-out and setting: for B11 the value was 104 % of control; for B12, 104 % of control; for B13, 103 % of control.

With B14, the He/Con_1a is 105 % of control. For B15, the He/Con_1a is 105 % of control. As for B16, the He/Con_1a is 102 % of control.

In the case of B17, the He/Con_1a is 107 % of control. For the molecule B18, the He/Con_1a is 102 % of control. On the same count and under the same terms, for B19 the value was 103 % of control; for B20, 102 % of control; for B21, 102 % of control.

Consider B22, for which the He/Con_1a is 103 % of control. With B23, the He/Con_1a was 109 % of control. The same measure, in the same setting: for B24 the value was 106 % of control; for B25, 104 % of control; for B26, 104 % of control. Take B27: the He/Con_1a was 103 % of control. For the molecule B28, the He/Con_1a was 103 % of control. B29: the He/Con_1a was 105 % of control.

Turning to B30, the He/Con_1a is 109 % of control.

B31: the He/Con_1a was 104 % of control.

In the case of B32, the He/Con_1a is 106 % of control. B33: the He/Con_1a is 102 % of control. With B34, the He/Con_1a was 110 % of control. Regarding B35, the He/Con_1a is 108 % of control.

Take B36: the He/Con_1a is 103 % of control. The same measure, in the same setting: next, B37: 102 % of control; B38: 108 % of control; B39: 102 % of control.

In the case of B40, the He/Con_1a was 106 % of control.

(Values after patent US20150344570A1 (published 2015).)
